Measurements published in ChEMBL document CHEMBL2074453, “Role of multidrug resistance protein 1 (MRP1) and glutathione S-transferase A1-1 in alkylating agent resistance. Kinetics of glutathione conjugate formation and efflux govern differential cellular sensitivity to chlorambucil versus melphalan toxicity” (J Biol Chem, 2001).

Tests used:
[1] = substrate: NC(Cc1ccc(N(CCCl)CCSC[C@H](NC(=O)CC[C@H](N)C(=O)O)C(=O)NCC(=O)O)cc1)C(=O)O; test: TP_TRANSPORTER: uptake in membrane vesicle from MCF7/VP cells; assay type: functional, cell membranes
[2] = substrate: NC(CCC(=O)NC(CSCCN(CCCl)c1ccc(CCCC(=O)O)cc1)C(=O)NCC(=O)O)C(=O)O; test: TP_TRANSPORTER: uptake in membrane vesicle from MCF/VP cells; assay type: functional, cell membranes

B1: Multidrug resistance-associated protein 1 (Homo sapiens) (protein)
chain: MALRGFCSADGSDPLWDWNVTWNTSNPDFTKCFQNTVLVWVPCFYLWACFPFYFLYLSRHDRGYIQMTPLNKTKTALGFLLWIVCWADLFYSFWERSRGIFLAPVFLVSPTLLGITMLLATFLIQLERRKGVQSSGIMLTFWLVALVCALAILRSKIMTALKEDAQVDLFRDITFYVYFSLLLIQLVLSCFSDRSPLFSETIHDPNPCPESSASFLSRITFWWITGLIVRGYRQPLEGSDLWSLNKEDTSEQVVPVLVKNWKKECAKTRKQPVKVVYSSKDPAQPKESSKVDANEEVEALIVKSPQKEWNPSLFKVLYKTFGPYFLMSFFFKAIHDLMMFSGPQILKLLIKFVNDTKAPDWQGYFYTVLLFVTACLQTLVLHQYFHICFVSGMRIKTAVIGAVYRKALVITNSARKSSTVGEIVNLMSVDAQRFMDLATYINMIWSAPLQVILALYLLWLNLGPSVLAGVAVMVLMVPVNAVMAMKTKTYQVAHMKSKDNRIKLMNEILNGIKVLKLYAWELAFKDKVLAIRQEELKVLKKSAYLSAVGTFTWVCTPFLVALCTFAVYVTIDENNILDAQTAFVSLALFNILRFPLNILPMVISSIVQASVSLKRLRIFLSHEELEPDSIERRPVKDGGGTNSITVRNATFTWARSDPPTLNGITFSIPEGALVAVVGQVGCGKSSLLSALLAEMDKVEGHVAIKGSVAYVPQQAWIQNDSLRENILFGCQLEEPYYRSVIQACALLPDLEILPSGDRTEIGEKGVNLSGGQKQRVSLARAVYSNADIYLFDDPLSAVDAHVGKHIFENVIGPKGMLKNKTRILVTHSMSYLPQVDVIIVMSGGKISEMGSYQELLARDGAFAEFLRTYASTEQEQDAEENGVTGVSGPGKEAKQMENGMLVTDSAGKQLQRQLSSSSSYSGDISRHHNSTAELQKAEAKKEETWKLMEADKAQTGQVKLSVYWDYMKAIGLFISFLSIFLFMCNHVSALASNYWLSLWTDDPIVNGTQEHTKVRLSVYGALGISQGIAVFGYSMAVSIGGILASRCLHVDLLHSILRSPMSFFERTPSGNLVNRFSKELDTVDSMIPEVIKMFMGSLFNVIGACIVILLATPIAAIIIPPLGLIYFFVQRFYVASSRQLKRLESVSRSPVYSHFNETLLGVSVIRAFEEQERFIHQSDLKVDENQKAYYPSIVANRWLAVRLECVGNCIVLFAALFAVISRHSLSAGLVGLSVSYSLQVTTYLNWLVRMSSEMETNIVAVERLKEYSETEKEAPWQIQETAPPSSWPQVGRVEFRNYCLRYREDLDFVLRHINVTINGGEKVGIVGRTGAGKSSLTLGLFRINESAEGEIIIDGINIAKIGLHDLRFKITIIPQDPVLFSGSLRMNLDPFSQYSDEEVWTSLELAHLKDFVSALPDKLDHECAEGGENLSVGQRQLVCLARALLRKTKILVLDEATAAVDLETDDLIQSTIRTQFEDCTVLTIAHRLNTIMDYTRVIVLDKGEIQEYGAPSDLLQQRGLFYSMAKDAGLV
Km [1]: 1.14 µM
Km [2]: 0.37 µM
